Laboratory results taken from patent US20190352359A1 (IMMATICS BIOTECHNOLOGIES, published 2019).

Target: T1, HLA-A*24
T1 construct: Monomers captured on streptavidin plates; also called peptide-receptive MHC molecules; MHC complexes
Assay: UV peptide-exchange ELISA (anti-b2m); yield grade ++ = >20%
Description: Candidate peptides for T cell based therapies according to the present invention were further tested for their MHC binding capacity (affinity). The individual peptide-MHC complexes were produced by UV-ligand exchange, where a UV-sensitive peptide is cleaved upon UV-irradiation, and exchanged with the peptide of interest as analyzed. Only peptide candidates that can effectively bind and stabilize the peptide-receptive MHC molecules prevent dissociation of the MHC complexes. To determine the yield of the exchange reaction, an ELISA was performed based on the detection of the light chain (p2m) of stabilized MHC complexes. The assay was performed as generally described in Rodenko et al. (Rodenko et al., 2006)
96 well MAXISorp plates (NUNC) were coated over night with 2 ug/ml streptavidin in PBS at room temperature, washed 4× and blocked for 1 h at 37° C. in 2% BSA containing blocking buffer. Refolded HLA-A*02:01/MLA-001 monomers served as standards, covering the range of 15-500 ng/ml. Peptide-MHC monomers of the UV-exchange reaction were diluted 100-fold in blocking buffer. Samples were incubated for 1 h at 37° C., washed four times, incubated with 2 ug/ml HRP conjugated anti-β2m for 1h at 37° C., washed again and detected with TMB solution that is stopped with […]. Absorption was measured at 450 nm. Candidate peptides that show a high exchange yield (preferably higher than 50%, most preferred higher than 75%) are generally preferred for a generation and production of antibodies or fragments thereof, and/or T cell receptors or fragments thereof, as they show sufficient avidity to the MHC molecules and prevent dissociation of the MHC complexes.

Binder | peptide exchange yield [%]
RTLNEIYHW (also called RTLNEIYHW) [FOXP3-001] | 20 to 50
VTMYLPLLL (also called VTMYLPLLL) [GPR143-001] | 20 to 50
EVVHTVFLF (also called EVVHTVFLF) [HMCN1-007] | 20 to 50
AYAIPSASLSW (also called AYAIPSASLSW) [HMCN1-005] | 20 to 50
FFLFIPFF (also called FFLFIPFF) [ADAM2-001] | 20 to 50
ASYQQSTSSFF (also called ASYQQSTSSFF) [FAM82A1-001] | 20 to 50
TIYSLEMKMSF (also called TIYSLEMKMSF) [GLB1L3-001] | 20 to 50
INGDLVFSF (also called INGDLVFSF) [CAPN6-002] | 20 to 50
YQRPDLLLF (also called YQRPDLLLF) [GEN-004] | 20 to 50
YLPNPSLNAF (also called YLPNPSLNAF) [CYP1A1-003] | 20 to 50
TYESVVTGFF (also called TYESVVTGFF) [HAS3-004] | 20 to 50
FSFSTSMNEF (also called FSFSTSMNEF) [CAPN6-001] | 20 to 50
HQYGGAYNRV (also called HQYGGAYNRV) [DLX5-002] | 20 to 50
TQIITFESF (also called TQIITFESF) [CSF2-001] | 20 to 50
YTRLVLQF (also called YTRLVLQF) [GABRP-008] | 20 to 50

More lines, now with the values ahead:

peptide exchange yield [%] | Binder
20 to 50 | KMFPKDFRF (also called KMFPKDFRF) [TTLL6-001]
20 to 50 | YTCSRAVSLF (also called YTCSRAVSLF) [OTOG-001]
20 to 50 | KMLPEASLLI (also called KMLPEASLLI) [NLRP4-004]
20 to 50 | WQNVTPLTF (also called WQNVTPLTF) [MMP16-002]
20 to 50 | MGKGSISFLF (also called MGKGSISFLF) [PCSK1-001]
20 to 50 | VYLRIGGF (also called VYLRIGGF) [WNT7A-002]
20 to 50 | RHYHSIEVF (also called RHYHSIEVF) [LOXL4-004]
20 to 50 | KYSVAFYSLD (also called KYSVAFYSLD) [LAMA1-008]
20 to 50 | KASKITFHW (also called KASKITFHW) [PTP-038]
20 to 50 | MLYFAPDLIL (also called MLYFAPDLIL) [PGR-004]
20 to 50 | CAMPVAMEF (also called CAMPVAMEF) [KBTBD8-003]
20 to 50 | VHSYLGSPF (also called VHSYLGSPF) [MPL-001]
20 to 50 | ALFPMGPLTF (also called ALFPMGPLTF) [LILRA4-003]
20 to 50 | RQAYSVYAF (also called RQAYSVYAF) [SLC45A3-005]
20 to 50 | LYQQSDTWSL (also called LYQQSDTWSL) [KIAA140-001]
